# Measurements reported in patent US20090311685A1, “NMU-GHSR1b/NTSR1 oncogenic signaling pathway as a therapeutic target for lung cancer” (Oncotherapy Science, Inc, priority 2006, published 2009).
# Where no end group is shown, it is not given here.
# B1: FLAG-tagged GHSR1b (receptor)
# chain: MWNATPSEEPGFNLTLADLDWDASPGNDSLGDELLQLFPAPLLAGVTATCVALFVVGIAGNLLTMLVVSRFRELRTTTNLYLSSMAFSDLLIFLCMPLDLVRLWQYRPWNFGDLLCKLFQFVSESCTYATVLTITALSVERYFAICFPLRAKVVVTKGRVKLVIFVIWAVAFCSAGPIFVLVGVEHENGTDPWDTNECRPTEFAVRSGLLTVMVWVSSIFFFLPVFCLTVLYSLIGRKLWRRRRGDAVVGASLRDQNHKQTVKMLGGSQRALRLSLAGPILSLCLLPSL
# notes: Transiently expressed in COS-7 cells; Cross-linked with DSP, immunoprecipitated with anti-FLAG beads and blotted; also called GHSR1b (p3XFLAG-CMV10 construct); not shown: FLAG tag from the p3XFLAG-CMV10 vector
# B2: rhodamine-labeled NMU-25 peptide: rhodamine-labeled NMU-25 peptide (Phoenix Pharmaceuticals, Inc.) (conjugate)
# peptide: MLRTESCRPRSPAGQVAAASPLLLLLLLLAWCAGACRGAPILPQGLQPEQQLQLWNEIDDTCSSFLSIDSQPQASNALEELCFMIMGMLPKPQEQDEKDNTKRFLFHYSKTQKLGKSNVVSSVVHPLLQLVPHLHERRMKRFRVDEEFQSPFASQSRGYFLFRPRNGRRSAGFI
# B3: NMU-25-Alexa594: Alexa Fluor 594-labeled NMU-25 peptide (conjugate)
# peptide: B2 peptide
# What was measured:
# [1] = target: T1, endogenous GHSR1b and NTSR1 on LC319 cells (Homo sapiens, UniProt P30989+Q92847); test: Ligand-receptor binding assay with Cy5-labeled NMU-25; details: 1 μM, dose-dependent
# T1 construct: endogenous in cells; host or cells: LC319
# T1 sequence (P30989 whole entry, one chain of several): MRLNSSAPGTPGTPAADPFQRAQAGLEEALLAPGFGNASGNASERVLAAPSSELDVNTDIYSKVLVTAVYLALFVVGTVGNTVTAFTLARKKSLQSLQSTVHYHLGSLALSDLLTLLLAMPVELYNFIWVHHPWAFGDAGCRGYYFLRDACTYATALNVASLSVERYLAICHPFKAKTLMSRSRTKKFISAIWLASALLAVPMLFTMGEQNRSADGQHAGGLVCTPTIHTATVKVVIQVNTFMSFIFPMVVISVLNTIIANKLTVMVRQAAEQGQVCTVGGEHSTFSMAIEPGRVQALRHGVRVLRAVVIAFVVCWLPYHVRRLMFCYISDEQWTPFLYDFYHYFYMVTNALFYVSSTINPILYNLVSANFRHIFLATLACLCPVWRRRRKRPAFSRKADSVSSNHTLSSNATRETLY
# Protocol: (§1) To confirm the binding of NMU-25 to endogenous candidate receptors on the NSCLC cell, a receptor-ligand binding assay using LC319 and PC14 cells that express GHSR1b and NTSR1, but not NMU1R and NMU2R were performed. Specifically, trypsinized cells were seeded onto a 96-well (with black wall and clear bottom) microtiter plates 24 hours prior to the assay. The medium was removed and the cells were incubated with CyS-labeled NMU-25 peptide (1 μM) with or without the addition of 10-fold excess unlabeled NMU-25 peptide as the competitor. The plate was incubated in dark for 24 hours at 37° C. and then scanned on 8200 Cellular Detection System (Applied Biosystems) to quantify the amount of CyS fluorescence probe bound to the surface of each cell. (15) Immunocytochemistry for Internalized Receptors
# [2] = target: T2, endogenous GHSR1b and NTSR1 on PC14 cells (Homo sapiens, UniProt P30989+Q92847); test: as above; details: 1 μM, dose-dependent
# T2 construct: endogenous in cells; host or cells: PC14
# T2 sequence (P30989 whole entry, one chain of several): as above
# Protocol: as §1
# LC319 cells [3] = test: Measurement of cAMP levels (cAMP EIA); assay type: cell-based, human; details: final concentrations of 3 to 100 μM
# Protocol: Trypsinized LC319, REF-LC-AI, NCI-H358 and SK-MED-1 cells were seeded onto a 96-well microtiter plate (5.0×10^4 cells) and cultured in appropriate medium supplemented with 10% FCS for 24 hours, and then the medium was changed to serum free/1 mM IBMX (isobutylmethylxanthine) 20 min prior to the assay. Next, the cells were incubated with individual concentrations of peptides (NMU-25, GHRL, or NTS) for 20 min and cAMP levels of the cells were measured using cAMP EIA System (GE Healthcare Bio-sciences).
# NSCLC cells = test: Competition of NMU-induced cAMP production; assay type: cell-based
# LC319 cells [4] = test: Intracellular Ca^2+ mobilization assay (FLIPR); assay type: cell-based, human
# Protocol: Trypsinized LC319 cells were seeded onto poly-D-lysine coated 384-well black-wall, clear-bottom microtiter plate (1.0×10^4 cells/ml) 24 hours prior to the assay. The cells were loaded for 1 hour with 4 μM Fluo-3-AM fluorescent indicator dye in assay buffer (Hank's balanced salt solution, 20 mM HEPES, 2.5 mM probenecid), washed three times with assay buffer, and then incubated for 10 min at room temperature before detection on fluorometric imaging plate reader (FLIPR; Molecular Devices). Fluorescence data of Ca^2+ release were collected in real-time at 1 sec intervals for the first 65 sec and at 3 sec intervals for additional 300 sec after individual concentrations of peptide (NMU-25, […], or NTS) treatment. Maximum change in fluorescence over baseline was measured to determine the response of the cells to the individual peptide stimulations.
# LC319 cells [5] = test: Flow cytometry of cell cycle after siRNA transfection; assay type: cell-based, human
# Protocol: Cells were plated at a density of 5×10^5 cells/100-mm dish, transfected with siRNA-expression vectors, and cultured in the presence of appropriate concentrations of geneticin. Four days after transfection, the culture medium was replaced with geneticin-free medium. Cells were incubated for additional 24 hours, then trypsinized, collected in PBS, and fixed in 70% cold ethanol for 30 min. After treatment with 100 μg/ml RNase (Sigma-Aldrich Co.), the cells were stained with 50 μg/ml propidium iodide (Sigma-Aldrich Co.) in PBS. Flow cytometry was performed on Becton Dickinson FACSCalibur and analyzed by Cell Quest software (Becton Dickinson Biosciences). The percentage of nuclei in G0/G1, S, and G2/M phases on the cell cycle and the sub-GI population, were determined from at least 20,000 ungated cells.
# [6] = target: the molecule itself; test: anti-FLAG immunoprecipitation, SDS-PAGE, immunoblot with anti-FLAG, anti-NTSR1 or anti-GHSR antibody
# Excerpt: Cell lysates from COS-7 cells that transiently express the FLAG-tagged GHSR1b, and those co-expressing both the FLAG-tagged GHSR1b and NTSR1 were immunoprecipitated with anti-FLAG antibody, subjected for SDS-PAGE, and then immunoblotted with anti-FLAG antibody (A), with anti-NTSR1 antibody (B), or with anti-GHSR antibody (C). The arrows indicate the monomer, heterodimer, and homodimers of the receptors. The molecular weight (kDa) markers are indicated on the left side of individual panels. Non-specific immunoreactive protein band detected by anti-FLAG antibody is indicated with asterisks.
# Cultured cells were washed twice with ice-cold PBS(−) and incubated with 5 mM Dithiobis [succinimidyl propionate] (DSP) (PIERCE) for 60 min in PBS(−) on ice. The reaction was quenched by incubation with Stop solution (1 M Tris, pH 7.5) at a final concentration of 50 mM Tris for 15 min on ice. […] The solutions were subjected to SDS-PAGE, and receptor proteins were detected by Western blot analysis using mouse monoclonal anti-FLAG M2 antibody, goat polyclonal anti-NTSR1 antibody, or rabbit polyclonal anti-GHSR antibody as the primary antibody, and rec-Protein G-Peroxidase Conjugate (ZYMED Laboratories, Inc.) to detect the antigen-antibody complexes.
# FLAG-tagged NTSR1 = target: T3, FLAG-tagged NTSR1 (Homo sapiens (Human), UniProt P30989 1-418); test: DSP cross-linking, immunoprecipitation and Western blot of transfected COS-7 cells
# T3 construct: Transiently expressed in COS-7 cells; COS-7 cells also express GHSR1b and NTSR1 endogenously, so in the cells transfected only with FLAG-GHSR1b the NTSR1 partner is the endogenous COS-7 protein; also called NTSR1 (p3XFLAG-CMV10 construct); not shown: FLAG tag from the p3XFLAG-CMV10 vector
# T3 sequence (P30989 whole entry A200T): as the sequence (P30989 whole entry, one chain of several) above, with A200T counted along it
# Protocol: Cultured cells were washed twice with ice-cold PBS(−) and incubated with 5 mM Dithiobis [succinimidyl propionate] (DSP) (PIERCE) for 60 min in PBS(−) on ice. The reaction was quenched by incubation with Stop solution (1 M Tris, pH 7.5) at a final concentration of 50 mM Tris for 15 min on ice. The cells were then washed twice with ice-cold PBS(−) and lysed in ice-cold Tx/G buffer (300 mM NaCl, 1% Triton X-100, 10% glycerol, 1.5 MM MgCl₂, 1 mM CaCl₂, and 10 mM iodoacetamide in 50 mM Tris-Cl, pH 7.4) containing protease inhibitor (Protease Inhibitor Cocktail Set III; Calbiochem) for 60 min on ice. […] The solutions were subjected to SDS-PAGE, and receptor proteins were detected by Western blot analysis using mouse monoclonal anti-FLAG M2 antibody, goat polyclonal anti-NTSR1 antibody, or rabbit polyclonal anti-GHSR antibody as the primary antibody, and rec-Protein G-Peroxidase Conjugate (ZYMED Laboratories, Inc.) to detect the antigen-antibody complexes.
# To examine direct association between GHSR1b and NTSR1, either or both of FLAG-tagged GHSR1b and FLAG-tagged NTSR1 were transiently expressed in COS-7 cells (FIG. 2A depicts the data of transient GHSR1b expression, and FIG. 2B the expression of both receptors). […] No such species were detected when empty vector (mock) was transfected to COS-7 cells as the negative control.
# COS-7 cells = test: Flow-cytometric binding of rhodamine-labeled NMU-25 to cells; details: 0.5-10 μM, 2 hours at room temperature
# Protocol: (11) Cell-Growth and Colony-Formation Assays COS-7 transfectants that stably express NMU were seeded onto 6-well plates (5×10^4 cells/well), and maintained in medium containing 10% FCS and 0.4 mg/ml geneticin for 24, 48, 72, 96, 120, and 144 hours. At each time point, cell proliferation was evaluated by MTT assay using Cell Counting Kit (WAKO). Colonies were counted at 144 hours. All experiments were done in triplicate. Interaction of NMU-25 with COS-7 cells were examined by flow-cytometric analysis. Specifically, subconfluent cells were harvested in Cell Dissociation Solution (Sigma-Aldrich Co.) and suspended in DMEM. Then, 1×10^6 cells/microtube were washed with assay buffer (PBS(−) with 10 mM MgCl2, 2 mM EDTA, and 0.1% BSA), and the cells were incubated with 0.5-10 μM rhodamine-labeled NMU-25 peptide (NMU-25-rhodamine; Phoenix Pharmaceuticals, Inc.) in assay buffer for 2 hours at room temperature. Subsequently, the cells were washed twice with assay buffer.
# To detect the population of cells binding to rhodamine-labeled NMU-25, flow cytometry was performed using Becton Dickinson FACSCalibur and analyzed by Cell Quest software. The growth effect of NMU on NSCLC cells was also examined using LC319 cells transiently transfected with plasmids expressing NMU or mock plasmids. The cells were cultured in RPMI containing 10% FCS and geneticin (1 mg/ml) for 18 days, and colonies were counted.
# LC319 cells [7] = test: Internalization study with fluorescence ligand of NMU (confocal microscopy); assay type: cell-based, human
# Protocol: LC319 cells were grown in DMEM containing 10% FCS. The cells were washed in PBS(−), and preincubated for 10 min at 37° C. in DMEM containing 0.1% BSA. The cells were then incubated for various periods of time with Alexa Fluor 594-labeled NMU-25 peptide in DMEM containing 0.1% BSA. At the end of incubation, the cells were washed three times with ice-cold PBS(−), fixed with 4% paraformaldehyde solution, initially for 5 min on ice and then for 15 min at room temperature. The cells were washed, and treated with DAPI. Images were viewed and assessed using confocal microscopy (TCS SP2 AOBS; Leica Microsystems). Optical sections with intervals of 0.25 μm were taken with 63×/1.4 objective.
molecule,measurement,setting,value
"Cy5-labeled NMU-25: Cy5 fluorescence-labeled NMU-25 peptide for the receptor-ligand binding assay (FRVDEEFQSPFASQSRGYFLFRPRN; ends and bridges not checked; also: Cy5 fluorescence label, site not given here)",binding to the cell surface,[1],detected to bind to the surface
same,binding to the cell surface,[2],detected to bind to the surface
nerotensin [NTS],cAMP production,LC319 cells [3],did not enhance
same,NMU-induced cAMP production,NSCLC cells,competitively inhibited
same,intracellular Ca^2+ flux / mobilization,LC319 cells [4],caused the mobilization response
"si-EGFP: control siRNA against enhanced green fluorescent protein gene, 5′-GAAGCAGCACGACTTCTTC-3′ (SEQ ID NO: 46) (chemistry not given here)",sub-GI fraction,LC319 cells [5],11.2%
B1,binding result,[6],binds
same,binding result,FLAG-tagged NTSR1,binds
B2,binding to the cell surface (flow cytometry),COS-7 cells,bound to the surface of COS-7 cells in a dose-dependent manner
B3,localization of internalized ligand,LC319 cells [7]; 15-min incubation,concentrated in dots or irregular clusters at more peripheral part of the cytoplasm
same,localization of internalized ligand,LC319 cells [7]; 45-min incubation,"concentrated within small spots clustered in the center of the cells, close to the nucleus"
same,internalization of labeled ligand (xz- and yz-projections),LC319 cells [7]; confocal microscopy,incorporated within the cells
